Results taken from EP1073891B1, “METHOD OF PREDICTING RECEPTOR MODULATING ACTIVITY” (Duke University, priority 1998, dated 1999).
Substitutions are numbered along the chain they refer to.

Columns and labels:
Type in all cases: cell-based
[1] = molecular target: T1, thyroid receptor beta (TRβ-VP16) (Homo sapiens, UniProt P10828); assay: Mammalian two-hybrid, specificity of peptide-nuclear receptor interaction (Example 4.2); conditions: mammalian two-hybrid (Fig. 8)
T1 construct: expressed in transfected cells
T1 sequence (P10828 1-461): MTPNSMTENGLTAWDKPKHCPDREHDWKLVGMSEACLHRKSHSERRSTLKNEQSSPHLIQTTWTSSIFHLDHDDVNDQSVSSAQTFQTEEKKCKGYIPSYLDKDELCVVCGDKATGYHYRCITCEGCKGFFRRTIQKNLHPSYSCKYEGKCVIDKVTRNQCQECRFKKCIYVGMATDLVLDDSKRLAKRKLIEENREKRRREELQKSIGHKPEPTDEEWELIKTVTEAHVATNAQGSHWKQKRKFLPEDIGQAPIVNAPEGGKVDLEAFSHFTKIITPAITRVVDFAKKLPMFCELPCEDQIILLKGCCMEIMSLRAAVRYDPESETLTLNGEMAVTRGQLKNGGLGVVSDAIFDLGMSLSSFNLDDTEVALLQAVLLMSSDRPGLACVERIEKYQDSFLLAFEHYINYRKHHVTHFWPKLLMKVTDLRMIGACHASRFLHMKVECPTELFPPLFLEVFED
Excerpt: (§1) Peptide sequences representing each class was fused to the DNA binding domain (DBD) of the yeast transcription factor Ga14. HepG2 cells were then transiently transfected with expression vectors for ERα-VP16 and the Gal4-peptide fusion proteins. In addition, a luciferase reporter construct under the control of 5 copies of a Ga14 upstream enhancer element was also transfected along with a pCMV-β galactosidase vector to normalize for transfection efficiency. Transfection of the Ga14 DBD alone is included as control. Cells were then induced with various ligands as indicated in the figure and assayed for luciferase activity and β galactosidase activity. Normalized response was obtained by dividing the luciferase activity by the β galactosidase activity.
The specificity of peptide-nuclear receptor interaction was analyzed (Fig. 8) using the mammalian two-hybrid system. Experimental design is the same as in figure 2 except that either progesterone receptor (PRB-VP16), estrogen receptor beta (ERβ-VP16), glucocorticoid receptor (GR-VP16) or thyroid receptor beta (TRβ-VP16) was tested.

ER3X (D538N/E542Q/D545N) = molecular target: T2, ER3X (D538N/E542Q/D545N) (Homo sapiens, UniProt P03372, D538N/D545N/E542Q); assay: Mammalian two-hybrid with ERα AF-2 mutants (Examples 4.3, 101.3); conditions: mammalian two-hybrid (Fig. 9)
T2 construct: expressed in transfected cells
T2 sequence (P03372 1-595 D538N/E542Q/D545N): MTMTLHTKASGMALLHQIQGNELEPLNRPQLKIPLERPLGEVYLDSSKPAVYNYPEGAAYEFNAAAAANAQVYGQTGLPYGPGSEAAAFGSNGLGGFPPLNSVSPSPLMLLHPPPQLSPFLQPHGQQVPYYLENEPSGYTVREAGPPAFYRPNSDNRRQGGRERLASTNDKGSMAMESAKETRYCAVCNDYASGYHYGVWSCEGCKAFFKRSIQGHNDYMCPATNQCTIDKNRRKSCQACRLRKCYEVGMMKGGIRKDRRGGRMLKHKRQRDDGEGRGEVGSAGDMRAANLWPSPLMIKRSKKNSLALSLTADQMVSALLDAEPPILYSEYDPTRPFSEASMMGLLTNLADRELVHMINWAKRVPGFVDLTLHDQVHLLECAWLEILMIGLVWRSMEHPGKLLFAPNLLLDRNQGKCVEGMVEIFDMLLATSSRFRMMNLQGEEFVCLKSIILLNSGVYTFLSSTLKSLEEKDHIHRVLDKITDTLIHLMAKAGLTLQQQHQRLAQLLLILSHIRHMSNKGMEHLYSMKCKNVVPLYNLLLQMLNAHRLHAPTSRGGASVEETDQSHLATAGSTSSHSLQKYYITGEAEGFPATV
Excerpt: as §1
(§2) Three ERα mutants were compared with wild-type ERα. ER-LL was characterized by mutations L540A/L541A. Mutant ER3X was characterized by mutations D538N/E542Q/D545N. Finally, mutant ER-535 STOP was truncated after residue V535. […] Experimental design is the same as in figure 7 except that either (A) ER3X (B) ERLL or (C) ER535-stop was analyzed for binding to conformation sensitive peptides.
(§3) To test whether different LXXLL motif peptides interact within the same region of ER, mammalian two hybrid assays were used. Selected peptide sequences and different ER mutants (ER-LL, ER-3X, ER-535 STOP) were expressed as fusion proteins to Gal4DBD and VP16 (TAD), respectively.

ER535-stop = molecular target: T3, ER535-stop (Homo sapiens, UniProt P03372); assay: as above; conditions: mammalian two-hybrid (Fig. 9)
T3 construct: mutant ER-535 STOP was truncated after residue V535; expressed in transfected cells
T3 sequence (P03372 1-534): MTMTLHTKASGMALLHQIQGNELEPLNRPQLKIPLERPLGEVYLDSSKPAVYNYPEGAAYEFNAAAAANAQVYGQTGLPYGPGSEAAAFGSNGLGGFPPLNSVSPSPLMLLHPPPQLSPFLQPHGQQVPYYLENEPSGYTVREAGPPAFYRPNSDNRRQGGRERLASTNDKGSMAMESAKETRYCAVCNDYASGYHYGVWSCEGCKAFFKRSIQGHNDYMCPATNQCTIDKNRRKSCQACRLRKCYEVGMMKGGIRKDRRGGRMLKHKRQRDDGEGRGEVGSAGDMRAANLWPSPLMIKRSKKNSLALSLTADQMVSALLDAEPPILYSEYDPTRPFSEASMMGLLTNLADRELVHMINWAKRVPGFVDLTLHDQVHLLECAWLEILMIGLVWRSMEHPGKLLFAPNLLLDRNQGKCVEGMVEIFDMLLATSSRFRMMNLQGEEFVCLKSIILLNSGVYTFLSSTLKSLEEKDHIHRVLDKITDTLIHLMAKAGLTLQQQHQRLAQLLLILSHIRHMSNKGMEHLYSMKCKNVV
Excerpt: as §1, §2, §3

ERLL (L540A/L541A) = molecular target: T4, ERLL (L540A/L541A) (Homo sapiens, UniProt P03372, L540A/L541A); assay: as above; conditions: mammalian two-hybrid (Fig. 9)
T4 construct: expressed in transfected cells
T4 sequence (P03372 1-595 L540A/L541A): T2 sequence (P03372 1-595 D538N/E542Q/D545N) with N538D, L540A, L541A, Q542E, N545D
Excerpt: as §1, §2, §3

Row | Sequence | interaction with TRβ [1] | interaction with the ER3X mutant receptor (ER3X (D538N/E542Q/D545N)) | interaction with the ER535-stop mutant receptor (ER535-stop) | interaction with the ERLL mutant receptor (ERLL (L540A/L541A))
1 | SSLTSRDFGSWYASR [α II] | None of the receptors tested interact significantly | largely unaffected | largely unaffected | largely unaffected
2 | SSNHQSSRLIELLSR [α/β I] | interact with the αβ I peptide in the presence of the appropriate agonist | retains some ability to engage | unable to interact | unable to interact
3 | SSPGSREWFKDMLSR [α/β V] |  | loss of the tamoxifen specificity | loss of the tamoxifen specificity | loss of the tamoxifen specificity
4 | SSWDMHQFFWEGVSR [α/β III] | None of the receptors tested interact significantly | loss of the tamoxifen specificity | loss of the tamoxifen specificity | loss of the tamoxifen specificity
